Target: biotinylated Apaf-1 CARD-LZ-Avi (UniProt O14727 1-137, biotin on the AviTag (BirA))
Test: SPR

Chain of biotinylated Apaf-1 CARD-LZ-Avi (O14727 other isoform, or with tags, fused parts or gaps): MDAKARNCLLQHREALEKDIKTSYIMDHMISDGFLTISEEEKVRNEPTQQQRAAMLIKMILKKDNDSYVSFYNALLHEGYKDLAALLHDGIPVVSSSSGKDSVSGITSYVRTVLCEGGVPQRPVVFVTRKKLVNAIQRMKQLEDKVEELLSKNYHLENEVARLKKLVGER

Kd: 125 nM
B1: processed C9/8 chimera (enzyme)
chain 1: MDEADRRLLRRCRLRLVEELQVDQLWDALLSRELFRPHMIEDIQRAGSGSRRDQARQLIIDLETRGSQALPLFISCLEDTGQDMLASFLRTNRQAAKLSKPTLENLTPVVLRPEIRKPEVLRPETPRPVDIGSGGFGSESQTLDKVYQMKSKPRGYCLIINNHNFAKAREKVPKLHSIRDRNGTHLDAGALTTTFEELHFEIKPHDDCTVEQIYEILKIYQLMDHSNMDCFICCILSHGDKGIIYGTDGQEAPIYELTSQFTGLKCPSLAGKPKVFFIQACQGDNYQKGIPVETD
chain 2: LSSPQTRYIPDEADFLLGMATVNNCVSYRNPAEGTWYIQSLCQSLRERCPRGDDILTILTEVNYEVSNKDDKKNMGKQMPQPTFTLRKKLVFPSD
